Assay results as given in the nanobody polyreactivity screen of Harvey et al. (2022).

Test: yeast display, Sf9 membrane polyspecificity reagent, FACS + sequencing; frameworks hold sequencing errors
In short: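 Nanobodies came from a synthetic yeast display library in Saccharomyces cerevisiae BJ5465, induced with galactose for 36–48 hours and stained for 1 hour at 4 °C with 10% biotinylated, detergent-solubilized Sf9 membrane reagent. Cells were enriched on streptavidin microbeads and then FACS-sorted, with low and high (top ~1%) gates set on anti-HA fluorescence for expression and streptavidin fluorescence for reagent binding. Each polyreactivity label reflects the gate a clone came from. Genes were amplified by colony PCR, sequenced by MiSeq 2 × 250 and filtered by CDR length.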

| Sequence | polyreactivity (PSR sort gate) |
| --- | --- |
| QVQLVESGGGLVKAGGSLRLSCAASGSTFYSYVMGWYRQAPGKERELFAAISRRGGSTYYADSVKWRFTISSDNAKNTVYLQMNSLKPEDTAVYYCAASAPVAGYKYRYDYWGQGTQVTVSS | high polyreactivity |
| QVQLVESGGGLVQAGGSLRLSCAASGSTFSWYVMGWYRQAPGKERELVAAISYRGGRTYYADSVKGRFTISRDNAKNTVYLQMNSLKPEDTAVYYCAARGVVDAGRTNRPYDYWGQGTQVTVSS | low polyreactivity |
| QVQLGESGGGLVQAGGSLRLSCAASGRTFYVYAMGWYRQAPGKERELVASIRRSGGITYYADYVKGRFTISRDNAKNTVYLLMNSLKPEDSAVYYCNARRGPGRREYDYWGQGTQVTVSS | high polyreactivity |
| QVQLVESGGGLVQAGGSLRLSCAASGGILYYYAMGWYRQAPGKERELVAGISVRGGRTNYADSVKGRFTISRDNAKNTVYLQMNSLKPEDTAVYYCAAETLYTSGYGSWGQGTQVTVSS | low polyreactivity |
| QVQLVESGAGLVQAGGSLRLTCAASARILGAYAMGWYRQAPGKERELVASISSGGRTYYADSVKGRFTISRDNAKNTVYLQMNSLKPEDTAVYYCNRDRNSGFYRRYGYWGQGSQVTVSS | high polyreactivity |
| QVQLVESGGGLVQAGGSLRLSCAASGRIFKGYAMGWYRQAPGKERELVAAITISGGSTYYADSVKGRFTISRDNAKNTVYLQMNSLKPEDTAVYYCAARKFVYWYGMEYWGQGSQVTVSS | low polyreactivity |
| QVQLVESGGGLVQAGGSLRLSCAASGSIFYYYSMGWYRQAPGKERELVARITSGGTNYADSVKGRFTISRDNAKNTVYLQMNSLKPEDTAVYYCNADHSTWLYKRYDYWGQGTQVTVSS | low polyreactivity |
| QVQLVESGGGLVQAGGSLRLSCAASGRIFDDNAMGWDRQAPGKETELVAAISASGGSTYYADSVKGRFTISRVNAKNTVYLQMNSLKPEDTAVYYCAKAPGQDTPYPYGYWGQGTQVTVSS | high polyreactivity |
| QVQLVESGGGLVQAGGSLRLSCAASGFIFNSYAMGWYRQAPGKERELVATITNGGTTNYADSVKGRFTLSRDNATITVYLQMNSLKPEDTAVYYCAAVGPSVYHEYDYWGQGTQVTVSS | low polyreactivity |
| QVQLVESGGVLVQAGGSLRLSCAASGRTFDRYAMGWYRQAPGKERELVAAITWSGGRTYYADSVKGRFTISRDNAKNTVYLHMNSLKPEDTAVYYCAADNSYRGYHSPYDYWGQGTQVTVSS | low polyreactivity |
| QVQLVESGGGLVQAGGSLRLSCAASGRIFFLYAMGWYRQAPGKERELVASINRGGNTNYADSVKGRFTISRDNAKNTVYLHMNSLKPEDTAVYYCAARLVIFYPYSRYYYWGQGTQVTVSS | high polyreactivity |
| QDQHVESGGGLVQAGGSLRLSCAASGRIYDPYAMGWYRPAPGKERELVATISYSDGSTYYADSVKGRFTISRDNAKNTVYLQMNSLKPEDTAVYYGNAEFVGWWGYPTVLRLEYWGQGTQVTVSS | low polyreactivity |
| QVQLVESGGGLVQAGGSLRLSCAASGYTFSSYAMGWYRQAPGKERELVAAITIGGGTNYADSVKGRFTISRDNAKNTVYLQMNSLKPEDTAVYYCNRDVALLEHPVPKKEFGYWGQGTQVTVSS | low polyreactivity |
| QDQLVESGGGLVQAGGRLRLSCAASGSIFVRNFMGWYRQAPGKERELVPAISWNGGSTFYADSVKWRFTISRDNAKNTVYLQMNSLKPEETAVYYCATRYGRHGWFYLYDYWGQGTQVTVSS | low polyreactivity |
| QVQLVESGGGLVQAGGSLRLSCAATGFTFNRYTMGWYRQAPGKERELVASISVRGSRTYSADSVKGRFTISRDNAKNTVYLQMNSLKPEDTAVYYCNAKTYVYYRLRSYYYWGQGTQVTVSS | high polyreactivity |
| QVQLVESGGGLVQAGGSLRLSCAASGSTITVNDMGWYRQAPGKERELVAAITQRDGRTFYADSVKGRFTISRDNAKNTVYLQMNSLKPVDTSVYYFAADYVWYTYGDYDYWGLGTQVTVSS | low polyreactivity |
| QVQLVESGGGLVQAGGILRLSCAASGSTFGDYTMGWYRHAPGKERELVAAITLTGGSTFYSDSVKGRFTISRDNAKNTVYLQMNSLKPVDTAVYYCNTDVIRWVGGTWHRYYYWGQGTQVTVSS | low polyreactivity |
| QVQLVESGGGLVQAGGSLRLSCAASGSTFVTNAMGWYRKAPGKERELVAAIRWSGGNTYYADSVKGRFTISRDNAKNTVYLQMNSLKPEDTAVYYCAAKKHLLPSYRGIRYYYWGQGTQVTVSS | high polyreactivity |
| QVQLVESGGGLVQAGGSLRLSCAASGSIFRDNVMGWYRQAPGKERELVAAISKRGGSTYYADSVKGRFTISRDNAKNTVYLQMNSLKPEDTAVYYCAAPQGRSHYYRYDYWGQGTQVTVSS | high polyreactivity |
| QVQLEESGGGLFQAGGSLRLRCAASGSIFHINAMGWYRQAPGKERELVADISHRGGSTYYADSVKGRFTISRDNAKNTVYLQMNSLKPEDTAVYYCAVVHVFYAVYYFSFYTYDYWGQGTQVTVSS | low polyreactivity |
| QFQLVESGGGLVQAGGSLRLSCAASGQILPYYAMGWYRQAPGKERELVAAISRTGGRTSYADSVNGRLTISRDNAKNTFYLQMNSLSPEDTAVYYCAAVGQSGGRRYDYWGQGTQVTVSS | high polyreactivity |
| QVQLVESGGGLVQAGGSLRLICAASGSTFAIYAMGWYRQAPGKERELVAAISWRTGSTYYADSVKGRFTISRDNAKNTVYLQMNSLKPEDTAVYYCAVRGRLQYSGGEGNYWGQGTQVTVSS | high polyreactivity |

| Sequence | polyreactivity (PSR sort gate) |
| --- | --- |
| QVQLVESGGGLVQAGGSLRLSCAASGSIFGVYAMGWYRQAPGKERELVARISSGGGSTYYADSVKGRFTISRDNAKNTVYLQMNSLKPEDTAVYYCATRYYGYYPVNYWGQGTQVTVSS | high polyreactivity |
| QVQLVESGGGLVQAGGSLRLSCAASGITSQSYAMGWYRQAPGKERELVAGISASGGRTFYADSVKGRFTISRDNAKNTVYLQMNSLKPEDTAVYYCNKLSSDSYNYWGQGTQVTVSS | high polyreactivity |
| QVQLVESCGGLDQAGGSLRLSCAASGRIFYAYAMGWYRQARGKERELVAAITSSGGRTYYADSVKGRFTISRDNAKNTVYLQMNSLKPEDTAVYYCAAYDYWGQGTQVTVSS | low polyreactivity |
| QVQLVESGGGLVQAGGSLRLICAASGYIFVRNAMGWYRQAPGKERELVAAISGSGGSTYYADSVKGRFTISRDNAKNTVYLQMNSLKPEDTAVYYSAADYATVTWRGIAYDYWGQGTQVTVSS | low polyreactivity |
| QVQHVESGGGIVQAGGSLRLSCAASGSIFDRNAMGWYRPAPGQERELVASISWDGGNTYYADSVKGRFTISRDNSTNTVYLQMNSLKPEDTAVYYCAVDLYIWYDGYEYYYWGQGTQVTVSS | high polyreactivity |
| QVQLVESGGGLVQAGGSLRLSCAASGRTFYWYVMGWYRQAPGKERELVAAITQTGSSTYYADSVKGRFTISRDNAKNTVYLQMNSLKPEDTAAYYCADRLSRNHYEVDYWGQGTQVTVSS | low polyreactivity |
| QVQLVESGGGLVQAGGILRLSCAASGSTFARYAMGWYRQEPGKERELVAVIRSGGSTNYADSVKGRFTISRDNAKNTVYLQMNSLKPEDTAGAADQWTIHRWATYGYWGQGTQVTVSS | low polyreactivity |
| QVQLVESGGGLVQAGGSLRLSCSASGFILSYYARGWYRQSPGKERELVAAISRAGSTNYADSVKGRFTISRDNAKNTVYLQMNSLKPEDTAVYYCNKRQYSARVSRSYDYWGQGTQVTVSS | high polyreactivity |
| QVQLVETGGGLVQAGGSLRLSCAASGTIFKKYAMGWYRQAPGKERELVAAITRGTYYADSVKGRFTISRDNAKNTVYLQMNSLIPEDTAVYYFNREYWGRGYYRVRGEYDYWGQGTQVTVSS | low polyreactivity |
| QVQLVESGGGLVQAGGSLRLSCAASGRILYPYAMGWYRQAPGKERELVAAISSRSANTYYADSVKGRFTISRDNAKNTVYLQMNSLKPEDTAVYYCAARSLGLGFGHWGQGTQVTVSS | high polyreactivity |
| QVQHVESGRGLVQAGGSLRLSCAASGRIFNPYAMGRYRQAPGKERELVAAISRGGRTYYADSVKGRFTISRDNAKNTVYLQMNSLKPEDTAVYYCNAGRGLREDDYWGQGTQVTVSS | low polyreactivity |
| QDQHVETGGGLVQAGGSLRLSCAASGRTFKFYAMGWYRQAHGKERELVAAITSGGKTNYADSVKGRFTISRDNAKNTVYLQLNSLKPEDTAVYYCKADAGRLSNRYRLWTYGYWGQGTQVTVSS | low polyreactivity |
| QVQLVESGGGLVQAGGSLRLSCAASGFTLVKYVMGWYRPAPGKERELVAAINRSGTSTYYADSVKGRFTISRDNAKNTVYLQMNSLKPEDTAVYYCAAERSRNFDWGQGTQVTVSS | high polyreactivity |
| QVQLVESGGGLVQAGGSLRLSCAASGRIFSYNAMGLYRPAPVKERELFAAITFSGGGTYYADSVKGRFTISRDNAKNTVYLQMKSLKPEDTAVYYCNKVSYGYSTYGYWGQGTQVTVSS | low polyreactivity |
| QDQLVESGGGLVQAGGSLRLSCAASGFTFFPYAMGWYRQAPGKERELVAGINDGGSTNYADSVKGRFTISRDNAKNTVYLQLNSLKPEDTAVYYCNADTPLSGGSSMGYWGQGTQVTVSS | low polyreactivity |
| QVQLVESGGGLVQAGGSLRLSCAASGFTFYYYAMGWYRQAPGKERELVAAISKSGGSTYYADSVKGRFTISRDNAKNTVYLQMNSLKPEDTAVYYCARDKGSSGKGHGYWGQGTQVTVSS | high polyreactivity |
| QVHLVESGGGLVQAGGSLRLSSAASGSIFIIYAMGWYRQAPGKERELVADITCRGGDTYYADSVKGRFTISRDNAKNTVYLQMNSLKPEDTAVYYCAARAGYPYTVQDVGVSAYDYWGQGTQVTVSS | low polyreactivity |
| QVQLVESGGGLVQAGGSLRLSCDASGSTFAPNTMGWYRQAPGKVREFVADISFSGGSTYYADSVKGRFSISRDNAKNTVYLQMTSRKPEDTAVYYCNAYYSYWFTQYDYWGQGTQVTVSS | high polyreactivity |
| QVQLVVSGAGLVQAGGSLRLSCAASGRNVVRNAMGWSRQAPGNEREWVAAITSGGRTYYAVSVKGRFTISRDNAKNTVYLQMTSLTPEDTAVYSCSTETRPHSVKNSPISLPDDYWGQGTQETVSS | low polyreactivity |
| QVQLVESGGGLVQAGGSLRLSCAASASTFLSYAMGWYRQAPGKERELVAAITSRGGSTYYADSVKGRFTISRDIAKNTVYLQMNSLKPEDTAVYYCATRLGYGDSKVRRPYSRFYYWGQGTQVTVSS | high polyreactivity |
| QVQLEESGGGLVQAGGSLRLSCAASGSTFVYYAMGWYRQSPGKERELVAAISRGGGSTYYADSVKGRFTISRDNAKNTVYLQMNSLKPEDTAVYYCAAVAGYRYYWGQGTQVTVSS | high polyreactivity |
